Entries after “also recorded” stand apart in the source; their conditions may differ.
Legend:
[1] = Biodistribution in H69 tumor model; conditions: mouse, in vivo, 5 mg/kg
Excerpt: (§1) In other studies, biodistribution of the conjugates was studied with H460 and H69 tumor models.

[2] = Lu levels in tumor, kidney and liver of mice at 0.5 mg/kg; conditions: for Tumor uptake (comparison): vs Conjugate 1 and Conjugate 2
H460 tumor model mice = experiment: Biodistribution in H460 tumor model; conditions: 5 mg/kg
Excerpt: as §1

[3] = Biodistribution in H460 tumor model; conditions: mouse, in vivo, 5 mg/kg
Excerpt: as §1

H69 tumor model mice = experiment: Biodistribution in H69 tumor model; conditions: H69 tumor model, 5 mg/kg, 48 h, individual animals
Excerpt: as §1

in vivo = conditions: female, Nude, mouse, iv, 3.7 MBq, total radioactivity
Procedure: Radioactive conjugate accumulation was measured in tumor, plasma and healthy tissues of NCI-H460 tumor-bearing mice (lung cancer). […] For each tissue, the percent injected dose per gram of tissue % ID/g was calculated.

[4] = Concentration in H460 tumor, H460 tumor model, individual animals
[5] = Concentration in Mouse kidney, H460 tumor model, individual animals
[6] = Concentration in Mouse plasma, H460 tumor model, individual animals

CCNC(=O)c1nnc(-c2cc(C(C)C)c(O)cc2O)n1-c1ccc(CN2CCN(C(=O)CCNC(=O)[C@@H](CCC(=O)O)NC(=O)[C@@H](CCC(=O)O)NC(=O)[C@@H](CCC(=O)O)NC(=O)CN3CCN4CCN5CCN(CC3)CC(=O)[O][Lu]([O]C(=O)C4)[O]C(=O)C5)CC2)cc1 [Conjugate 2]
level at time molar at 24 h ([1]; Concentration in H69 tumor, H69 tumor model, individual animals): 240 nM
level at time molar at 24 h ([1]; Tumor Levels, H69, 5 mg/kg, H69): 330 nM
Average Lu in kidney [2]: 2.86 % ID/g
Average Lu in tumor [2]: 0.92 % ID/g
Clearance from plasma (H460 tumor model mice; H460 and H69 tumor models): clear rapidly from plasma; also recorded: slightly superior
Tumor retention (comparison) (H460 tumor model mice; H460 and H69 tumor models, Conjugate 1 vs Conjugate 2): similar
Concentration in Mouse kidney (H460 tumor model mice; H460 tumor model, 48 h, individual animals): 540 nM
level at time molar at 1 h [3, 4]: 1170 nM
level at time molar at 48 h [3, 4]: 220 nM
level at time molar at 1 h [3, 5]: 1550 nM
level at time molar at 24 h [3, 5]: 1450 nM
level at time molar at 48 h [3, 5]: 540 nM
level at time molar at 1 h ([3]; Concentration in Mouse liver, H460 tumor model, individual animals): 16 nM
level at time molar at 24 h ([3]; Tumor Levels, H460 (2), H460 study (2)): 650 nM

CCNC(=O)c1nnc(-c2cc(C(C)C)c(O)cc2O)n1-c1ccc(CN2CCN(C(=O)CCNC(=O)[C@@H](CCCCN)NC(=O)[C@@H](CCCCN)NC(=O)[C@@H](CCCCN)NC(=O)CN3CCN(CC(=O)O)CCN(CC(=O)O)CCN(CC(=O)O)CC3)CC2)cc1 [Conjugate 3]
Concentration in H69 tumor (H69 tumor model mice): 200 nM
level at time molar at 48 h ([1]; Concentration in H69 tumor, H69 tumor model, 48 h, individual animals): 200 nM
level at time molar at 24 h ([1]; Concentration in Mouse liver, H69 tumor model, individual animals): 80 nM
level at time molar at 1 h ([1]; Concentration in Mouse plasma, H69 tumor model, 1 h, individual animals): 1220 nM
level at time molar at 24 h ([1]; Concentration in Mouse plasma, H69 tumor model, individual animals): 38 nM
Concentration in Mouse liver (H460 tumor model mice; H460 tumor model, 1 h, individual animals): 70 nM
level at time molar at 48 h [3, 4]: 91 nM
level at time molar at 1 h [3, 5]: 4520 nM
level at time molar at 48 h [3, 5]: 4290 nM
level at time molar at 24 h [3, 6]: 11 nM
level at time molar at 48 h [3, 6]: 11 nM

CCNC(=O)c1nnc(-c2cc(C(C)C)c(O)cc2O)n1-c1ccc(CN2CCN(C(=O)CCNC(=O)CC[C@@H](NC(=O)CC[C@@H]3C(=O)[O][Lu]4[O]C(=O)CN5CCN(CC(=O)O)CCN3CCN(CC5)CC(=O)[O]4)C(=O)N3CCN(Cc4ccc(-n5c(C(=O)NCC)nnc5-c5cc(C(C)C)c(O)cc5O)cc4)CC3)CC2)cc1 [Conjugate 9]
Average Lu in Liver [2]: 2.92 % ID/g
Average Lu in kidney [2]: 2.40 % ID/g
Average Lu in tumor [2]: 5.73 % ID/g
Tumor uptake (comparison) [2]: noticeably higher than Conjugate 1 and Conjugate 2

CCNC(=O)c1nnc(-c2cc(C(C)C)c(O)cc2O)n1-c1ccc(CN2CCN(C(=O)CCNC(=O)[C@@H](CCC(=O)O)NC(=O)[C@@H](CCC(=O)O)NC(=O)[C@@H](CCC(=O)O)NC(=O)COCCOCCNC(=O)CCCCn3cc(CN(CCCNC(=O)CC[C@H](C(=O)O)N4CCN5CCN6CCN(CC4)CC(=O)[O][Lu]([O]C(=O)C6)[O]C(=O)C5)C(=O)CCCNC(=O)CCCc4ccc(I)cc4)nn3)CC2)cc1 [Conjugate 10]
Average Lu in Liver [2]: 1.51 % ID/g
Average Lu in kidney [2]: 11.18 % ID/g
Average Lu in tumor [2]: 8.49 % ID/g
Tumor uptake (comparison) [2]: noticeably higher than Conjugate 1 and Conjugate 2

CCNC(=O)c1nnc(-c2cc(C(C)C)c(O)cc2O)n1-c1ccc(CN2CCN(C(=O)CCNC(=O)[C@@H](CCC(=O)O)NC(=O)[C@@H](CCC(=O)O)NC(=O)[C@@H](CCC(=O)O)NC(=O)CN3CCN(CC(=O)O)CCN(CC(=O)O)CCN(CC(=O)O)CC3)CC2)cc1 [^177Lu-2, metal not drawn]
tissue uptake at 6 h (in vivo; Radioactivity in Bone Marrow): 0.01 %ID/g
tissue uptake at 6 h (in vivo; Radioactivity in Brain): 0.01 %ID/g
tissue uptake at 6 h (in vivo; Radioactivity in Eyes): 0.12 %ID/g
tissue uptake at 6 h (in vivo; Radioactivity in Kidney): 4.29 %ID/g
tissue uptake at 6 h (in vivo; Radioactivity in Liver): 0.33 %ID/g
tissue uptake at 6 h (in vivo; Radioactivity in Tumor): 1.21 %ID/g
